Experiment in all cases: ELISA, peptide 2 µg/mL, mAb 5 µg/mL
For orientation: ELISA stands for enzyme-linked immunosorbent assay.

The target of test [1] is NM11.
Test [2] has as its target NM9.
Test [3] deals with NM10.
The target of test [4] is NM16.

B1: 8i10 (antibody, V domains shown)
VH: QVQLQESGPGLVKPSETLSLTCTVSGSSISNYYWSWIRQSPGKGLEWIGFIYYGGNTKYNPSLKSRVTISQDTSKSQVSLTMSSVTAAESAVYFCARASCSGGYCILDYWGQGTLVTVS
VL: DIQMTQSPSSLSASVGDRVTITCRASQNIYKYLNWYQQRPGKAPKGLISAASGLQSGVPSRFSGSGSGTDFTLTITSLQPEDFATYYCQQSYSPPLTFGGGTRVEIK
B1: the binding activity (ELISA A450) turned out to be 0.13 in test [1], 0.12 in test [2], 0.1 in test [3] and 0.29 in test [4].

B2: 23K12 (antibody, V domains shown)
VH: EVQLVESGGGLVQPGGSLRISCAASGFTVSSNYMSWVRQAPGKGLEWVSVIYSGGSTYYADSVKGRFSFSRDNSKNTVFLQMNSLRAEDTAVYYCARCLSRMRGYGLDVWGQGTTVTVS
VL: DIQMTQSPSSLSASVGDRVTITCRTSQSISSYLNWYQQKPGKAPKLLIYAASSLQSGVPSRFSGSGSGTDFTLTISGLQPEDFATYYCQQSYSMPAFGQGTKLEIK
Consider B2, for which the binding activity (ELISA A450) was 0.3 in test [1], 0.3 in test [2], 0.24 in test [3] and 0.62 in test [4].
